Source: the supplement of paper PMC9732359
± gives the uncertainty stated by the source.

Assay: protein stability index of a GFP-peptide fusion (yeast GPS) (PSI 1-4); higher = more stable; sorted into four equal gates, so the index is relative within each strain
How it was run: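 Tiled yeast protein peptides of 17 residues were each joined downstream of GFP, on plasmids that also express Cherry. The pooled library was maintained in yeast, and mid-log cultures in leucine-free medium were sorted into four equal gates on the GFP/Cherry ratio. Plasmids from every gate were amplified by PCR and sequenced on Illumina, with barcodes linking reads to strains. The protein stability index of a peptide is its gate-number-weighted read frequency summed over the gates.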

Sequence	protein stability index (doa10∆)	protein stability index (pdr5∆)	protein stability index (san1∆)	protein stability index (ubr1∆)
NTNELKEVSSFLMGIFN [MTR3]	2.93 ± 0.067	3.06 ± 0.061	2.92 ± 0.061	3.1 ± 0.046
SRTRAHAQSKREGRHSG [RPL19A]	2.87 ± 0.076	2.85 ± 0.07	2.83 ± 0.042	2.99 ± 0.037
AAMVPFIKFKLIQQVPP [CDC53]	2.12 ± 0.062	1.92 ± 0.07	2.17 ± 0.1	2.07 ± 0.068
DQITKMKDRLVEWNDQV [RPN9]	3.35 ± 0.12	3.05 ± 0.099	3.43 ± 0.079	3.29 ± 0.079
FPTRLGQGYRKVGIWPY [YJL039C/NUP192]	3.49 ± 0.17	3.25 ± 0.14	2.96 ± 0.12	
SNGEVLEVGKNNFCALY [RPN14]	2.34 ± 0.07	2.05 ± 0.11	1.64 ± 0.14	2.05 ± 0.036
NQIADLSGKFSTIPTRE [ROX3]	2.98 ± 0.091	2.96 ± 0.093	2.81 ± 0.071	3.23 ± 0.07
AVDAKQLAQIRQFLKAN [YML103C/NUP188]	2.58 ± 0.12	3.06 ± 0.079	2.96 ± 0.093	2.78 ± 0.067
FEPASRLQGIKLLDNIQ [COR1]	2.87 ± 0.064	2.98 ± 0.063	2.64 ± 0.06	2.54 ± 0.046
AVTEATSTNGDSENNEE [RGR1]	3.13 ± 0.14	3.3 ± 0.076	3.36 ± 0.068	3.08 ± 0.073
DWVENELEALKLEAEEI [FAS2]	3.29 ± 0.27			3.49 ± 0.24
SPVTGDNSPSEDFMDIP [SNF2]	3.21 ± 0.12	3.25 ± 0.1	2.81 ± 0.17	3.42 ± 0.058
PTKTLTTKERKKSRLGN [PRP8]	2.33 ± 0.079	2.26 ± 0.072	2.91 ± 0.094	2.62 ± 0.056
DKLSVSEISDGKLKRCS [SIN4]	3.27 ± 0.15	3.38 ± 0.13	3.15 ± 0.1	3.6 ± 0.11
NVNMTVNTMGTGGQTID [MED6]	3.23 ± 0.3	3.44 ± 0.12	3.06 ± 0.14	3.37 ± 0.29
DEEESNDEKQKAQDVDV [RPN13]	3.33 ± 0.12	3.42 ± 0.077	3.34 ± 0.044	3.32 ± 0.049
DSEIEISSEKLLTLTNA [RPP1A]	2.99 ± 0.063	2.92 ± 0.073	2.93 ± 0.061	3.12 ± 0.055
MSTESALSYAALILADS [RPP1A]	1.75 ± 0.062	1.97 ± 0.073	1.72 ± 0.073	1.83 ± 0.046
SFLKEGDLLNAEVQSLF [RRP4]	2.57 ± 0.058	3.03 ± 0.091	3.04 ± 0.059	2.8 ± 0.067
LVQKFGGADQVTRTQQW [SWI1]	3.08 ± 0.13	3.06 ± 0.088	2.88 ± 0.13	2.78 ± 0.076
NKIIPNVGLCITIYDLL [RPC25]	1.43 ± 0.082	1.29 ± 0.068	1.29 ± 0.13	1.5 ± 0.067
TLAYDRGHRIRREFKQY [PRP8]	2.82 ± 0.08	2.63 ± 0.058	2.35 ± 0.098	2.3 ± 0.052
LVSEARTLWPEFIPPDP [SSN8]	2.61 ± 0.041	2.8 ± 0.043	2.73 ± 0.038	3.03 ± 0.033
PKILIREHERVILKQIL [SWP82]	1.84 ± 0.081	2.18 ± 0.092	3.18 ± 0.24	3.15 ± 0.12
FFMSERSSRLHIVYSLL [YML103C/NUP188]	1.91 ± 0.06	2.33 ± 0.079	1.55 ± 0.11	2.08 ± 0.053
LPQFRSSIQESLLSLVG [ECM29]	1.87 ± 0.067	2.04 ± 0.048	1.7 ± 0.1	1.65 ± 0.054
ESWANQLTVCGAIIGWT [FAS2]	1.13 ± 0.041	1.3 ± 0.038	1.2 ± 0.088	1.44 ± 0.037

Sequence	protein stability index (doa10∆)	protein stability index (pdr5∆)	protein stability index (san1∆)	protein stability index (ubr1∆)
NTHYHADYRLILTGTPL [SNF2]	1.31 ± 0.11	1.71 ± 0.097	1.39 ± 0.12	1.75 ± 0.076
TSLLYLSTLEPSTSITL [RPN9]	2.36 ± 0.059	1.89 ± 0.049	1.91 ± 0.089	2.13 ± 0.045
EQTEGEPKKKRGFLGLF [SRP68]	3.1 ± 0.096	3.26 ± 0.11	2.9 ± 0.064	2.76 ± 0.066
AHTGATPIAGRFTPGSF [RPS0A]	3.15 ± 0.17	2.91 ± 0.08	2.52 ± 0.17	2.81 ± 0.12
PRINNISAEDRADTDLA [SNF2]	1.94 ± 0.15	2.51 ± 0.14	3.02 ± 0.084	2.86 ± 0.086
EETDDEDKQNIEINEDN [RRI2]	3.52 ± 0.08	3.25 ± 0.07	3.26 ± 0.045	3.25 ± 0.038
ELAGGNASLTIEDEDEP [SMC1]	3.03 ± 0.08	3.09 ± 0.14	3 ± 0.059	3.16 ± 0.074
YTETDPAKVAEEGINKF [SRP54]	3.05 ± 0.1	3.3 ± 0.097	2.9 ± 0.089	3.04 ± 0.095
DELRKQELISKAFTNWN [ISW2]	2.04 ± 0.065	2.45 ± 0.078	2.4 ± 0.089	2.23 ± 0.067
QRRYVIKEKVQFNATIN [ITC1]	1.47 ± 0.04	1.65 ± 0.033	1.63 ± 0.069	1.68 ± 0.024
LYPSFKPIYKDTRFGGR [SSN2]	3.17 ± 0.15	3.16 ± 0.087	3.1 ± 0.047	3.41 ± 0.14
LHYCVSCAIHARIVRVR [RPS26A]	1.17 ± 0.066	1.2 ± 0.083	1.15 ± 0.13	1.2 ± 0.12
ISDDDDSALRYSILGDR [POP4]	3.12 ± 0.066	2.97 ± 0.093	2.61 ± 0.052	2.72 ± 0.089
EKLITSKLLVPQKNVKI [PRE10]	2.55 ± 0.061	2.6 ± 0.047	2.04 ± 0.096	2.21 ± 0.042
SDMENDNLLLNLEQINE [REC8]	2.76 ± 0.056	2.75 ± 0.048	2.72 ± 0.06	2.86 ± 0.048
RQLANLIPFIVKQVLLS [NUT1]	1.62 ± 0.032	1.55 ± 0.028	1.59 ± 0.051	1.69 ± 0.033
FLQDKVQIKDVNDRYQI [CSI1]	3.28 ± 0.18	1.58 ± 0.12	1.05 ± 0.17	3.37 ± 0.21
ETLKRDRKQSQATNATN [ARP7]	2.69 ± 0.074	2.86 ± 0.082	2.39 ± 0.11	2.74 ± 0.068
QSAIRPAGQATQKRTHV [RPL4A]	2.83 ± 0.09	2.8 ± 0.091	2.72 ± 0.085	2.5 ± 0.074
HFPINVNIVEKDGAKFI [RPL9A]	2.58 ± 0.069	2.57 ± 0.079	2.53 ± 0.065	2.5 ± 0.07
VQYLSGAHGNSDPVCLF [POP3]	2.96 ± 0.12	2.83 ± 0.18	3.04 ± 0.11	2.75 ± 0.063
TDKVSLSQPVSASKHEY [SIR4]	2.29 ± 0.079	2.53 ± 0.057	2.24 ± 0.082	1.95 ± 0.041
LRAIEKNDDNSCRNPEH [YIL149C/MLP2]	3.19 ± 0.16	3.25 ± 0.088	3.27 ± 0.13	3.15 ± 0.14
VLVSMGSSNKAVVQTVK [YJL039C/NUP192]	1.33 ± 0.26	1.5 ± 0.15		1.34 ± 0.19
GFGILEDGMIIDVNLNF [RRP40]	3.08 ± 0.089	3.21 ± 0.075	3.19 ± 0.089	3.02 ± 0.076
HELGINIDSLKFNELVK [BRR2]	2.89 ± 0.07	2.93 ± 0.058	3.08 ± 0.054	2.9 ± 0.06
